Data on 1 protein can be found in article PMC2724282 (Nucleic Acids Research, 2009).

The data set concerns the molecule itself. The experiment in a line: cross-linking.

B1: Hin–H107Y/S94C (enzyme)
chain: MATIGYIRVSTIDQNIDLQRNALTSANCDRIFEDRISGKIANRPGLKRALKYVNKGDTLVVWKLDRLGRSVKNLVALISELHERGAHFHSLTDCIDTSSAMGRFFFYVMSALAEMERELIVERTLAGLAAARAQGRLGGRPRAINKHEQEQISRLLEKGHPRQQLAIIFGIGVSTLYRYFPASRIKKRMN
Take B1: the binding result was “binds”.
